Columns and labels:
[1] = Plasma pharmacokinetics of EC0565 after a single intravenous or subcutaneous dose; conditions: for Tmax: sc
Protocol: The bioavailability of EC0565 after subcutaneous injection was measured. Female Lewis rats with rounded tip jugular vein catheters (Harlan) were fed regular rodent diet. The treated animals were given a single intravenous or subcutaneous dose of EC0565 at 2 μmmol/kg. […] For subcutaneous administration FIG. 18b, whole blood samples (300 μl) were collected from the animals at 1 min, 10 min, 30 min, 1 h, 2 h, 3 h, 4 h, 8 h, and 12 h post injection. The blood samples were placed into anti-coagulant tubes containing 1.7 mg/mL of K3-EDTA and 0.35 mg/mL of N-maleoyl-beta-alanine (0.35 mg/mL). Plasma samples were obtained by centrifugation for 3 min at ˜2,000 g and stored at −80° C. The amount of EC0565 and its released base drug (everolimus) were determined by HPLC using the EC0565 injection solution as the standard.

physchem = conditions: pH 7.4
[2] = tested on: Proliferating Cell Nuclear Antigen (PCNA); assay: Western blot of PCNA in synchronized RAW264.7 cells; assay type: cell-based, murine; conditions: 1-1000 nM; EC0565 2 h treatment, 48-h chase; everolimus 48 h
Protocol: To study anti-proliferative effect of EC0565, FR-positive murine macrophage-like RAW264.7 cells (serum deprived for 36 h for synchonization) were given a 2 h treatment of EC0565 (1, 10, 100, and 1000 nM) without or with 1000× excess of EC17 (as a folate competitor) followed by a 48-h chase in drug-free medium. For comparison, the cells were also treated for 48 h with everolimus (1, 10, 100, and 1000 nM). […] Western blot analysis was carried out on whole cell lysates using a monoclonal antibody specific for PCNA (PC10, Cell Signaling, Danvers, Mass.). After incubation with a peroxidase-conjugated secondary antibody, the signals were visualized using SuperSignal West Pico Chemiluminescent Substrate system (ThermoScientific, Waltham, Mass.) following the manufacturer's instructions. The images were acquired using a G:BOX Chemi HR 16 gel imaging system (Syngene, Frederick, Md.).

[3] = cited from earlier work
[4] = rats; cited from earlier work
[5] = female, Lewis, rat, in vivo, 2 μmmol/kg

Row | Tmax ([1]; female, Lewis, rat, in vivo) | SMILES | bioavailability [1, 5] | Tmax [1, 5] | free drug (everolimus) exposure/release in plasma, based on AUC ([1]; single intravenous dose of EC0565 at 2 μmmol/kg) | free drug (everolimus) exposure/release in plasma, based on AUC ([1]; single subcutaneous dose of EC0565 at 2 μmmol/kg) | solubility (physchem) | effect on PCNA activities [2] | water solubility [3] | oral bioavailability [4]
1 |  | CO[C@H]1C[C@@H]2CC[C@@H](C)[C@@](O)(O2)C(=O)C(=O)N2CCCC[C@H]2C(=O)O[C@H]([C@H](C)C[C@@H]2CC[C@@H](OCCOC(=O)OCCSSC[C@H](NC(=O)[C@H](CCC(=O)NC[C@H](O)[C@@H](O)[C@H](O)[C@H](O)CO)NC(=O)[C@H](CCC(=O)O)NC(=O)[C@H](CCC(=O)NC[C@H](O)[C@@H](O)[C@H](O)[C@H](O)CO)NC(=O)[C@H](CCC(=O)O)NC(=O)[C@H](CCC(=O)NC[C@H](O)[C@@H](O)[C@H](O)[C@H](O)CO)NC(=O)CC[C@H](NC(=O)c3ccc(NCc4cnc5nc(N)[nH]c(=O)c5n4)cc3)C(=O)O)C(=O)O)[C@H](OC)C2)CC(=O)[C@H](C)/C=C(\C)[C@@H](O)[C@@H](OC)C(=O)[C@H](C)C[C@H](C)/C=C/C=C/C=C/1C [EC0565] | ~128% | ~1 h | approximately 18% | ~17% | > 1000 µM |  |  | 
2 | ~1 h | CO[C@H]1C[C@@H]2CC[C@@H](C)[C@@](O)(O2)C(=O)C(=O)N2CCCC[C@H]2C(=O)O[C@H]([C@H](C)C[C@@H]2CC[C@@H](OCCO)[C@H](OC)C2)CC(=O)[C@H](C)/C=C(\C)[C@@H](O)[C@@H](OC)C(=O)[C@H](C)C[C@H](C)/C=C/C=C/C=C/1C [everolimus] |  |  |  |  |  | inhibited PCNA activities | 1 to 10 µM | ~12%
